B1: mAb nCoV396 (recombinant human IgG1) (antibody, V domains shown)
VH: QVQLVESGGGVVQPGRSLRLSCAASGFTFSSYIMHWVRQAPGKGLEWVAVISYDGSNEAYADSVKGRFTISRDNSKNTLYLQMSSLRAEDTGVYYCARETGDYSSSWYDSWGRGTLVTVSS
VL: QLVLTQSPSASASLGASVKLTCTLSSGHSNYAIAWHQQQPEKGPRYLMKVNSDGSHTKGDGIPDRFSGSSSGAERYLTISSLQSEDEADYYCQTWGTGIQVFGGGTKLTVL
notes: also called mAb-396; IgH ID H16030
B2: human monoclonal antibody nCoV396, recombinant IgG1 (antibody, V domains shown)
VH: QVQLVESGGGVVQPGRSLRLSCAASGFTFSSYIMHWVRQAPGKGLEWVAVISYDGSNEAYADSVKGRFTISRDNSKNTLYLQMSSLRAEDTGVYYCARETGDYSSSWYDSWGRGTLVTVSS
VL: QLVLTQSPSASASLGASVKLTCTLSSGHSNYAIAWHQQQPEKGPRYLMKVNSDGSHTKGDGIPDRFSGSSSGAERYLTISSLQSEDEADYYCQTWGTGIQVFGGGTKLTVL
notes: also called mAb nCoV396

Key:
Settings in all cases: both partners purified
[1] = biological target: T1, SARS-CoV-2 nucleocapsid (N) protein, full length (N-FL, 1-419) (Severe acute respiratory syndrome …, UniProt P0DTC9); assay: SPR; Biacore X100; […]; room temperature; 1:1 binding model, […]
T1 construct: also called SARS-CoV-2 N protein

[2] = biological target: T2, SARS-CoV nucleocapsid (N) protein, full length (N-FL) (Severe acute respiratory syndrome …, UniProt P59595); assay: as above
T2 construct: also called SARS-CoV N protein; SARS-CoV N-FL

[3] = biological target: T3, MERS-CoV nucleocapsid (N) protein, full length (N-FL) (MERS-CoV, strain , UniProt K9N4V7); assay: as above
T3 construct: also called MERS-CoV N protein; MERS-CoV N-FL

[4] = biological target: T4, SARS-CoV N protein (N-FL) (Severe acute respiratory syndrome …, UniProt P59595); assay: SPR; Biacore X100; […]; room temperature; 1:1 binding model
T4 construct: also called SARS-CoV N-FL

[5] = biological target: T5, MERS-CoV N protein (N-FL) (MERS-CoV, strain , UniProt K9N4V7); assay: as above
T5 construct: also called MERS-CoV N-FL; Middle East respiratory syndrome coronavirus N protein

[6] = biological target: T6, SARS-CoV-2 full-length nucleocapsid (N) protein (N-FL: 1-419) (Severe acute respiratory syndrome …, UniProt P0DTC9); assay: as above
T6 construct: also called SARS-CoV-2 N protein

Binder	koff [1] [s⁻¹]	kon [1] [M⁻¹ s⁻¹]	Kd [2] [nM]	koff [2] [s⁻¹]	kon [2] [M⁻¹ s⁻¹]	Kd [3] [nM]	koff [3] [s⁻¹]	kon [3] [M⁻¹ s⁻¹]	Kd [4] [nM]	Kd [5] [nM]	Kd [6] [nM]
B1	2.89e-06	2830	7.44	0.000295	39700	7.43	0.0004	53800			
B2									7.4	7.4	1.02
